The data set concerns the molecule itself. Kind of data set: cryo-EM imaging of cells; unlabeled purified S-layer proteins added to live Vps4 E209Q ΔslaA cells, 75 °C, 1 h; lattice seen on the cell surface by cryo-EM.

Consider one protein from publication PMC12207459, “A self-assembling surface layer flattens the cytokinetic furrow to aid cell division in an archaeon” (Proceedings of the National Academy of Sciences of the …, 2025).

B1: purified SlaA from wild-type S. acidocaldarius, unlabeled (natural protein, Sulfolobus acidocaldarius, UniProt Q4J6E5 25-1424, looked up)
chain: ITTTALTPPVSAGGIQAYLLTGSGAPASGLVLFVVNVSNIQVSSSNVTNVISTVVSNIQINAKTENAQTGATTGSVTVRFPTSGYNAYYDSVDKVVFVVVSFLYPYTTTSVNIPLSYLSKYLPGLLTAQPYDETGAQVTSVSSTPFGSLIDTSTGQQILGTNPVLTSYNSYTTQANTNMQEGVVSGTLTSFTLGGQSFSGSTVPVILYAPFIFSNSPYQAGLYNPMQVNGNLGSLSSEAYYHPVIWGRALINTTLIDTYASGSVPFTFQLNYSVPGPLTINMAQLAWIASINNLPTSFTYLSYKFSNGYESFLGIISNSTQLTAGALTINPSGNFTINGKKFYVYLLVVGSTNSTTPVEYVTKLVVEYPSSTNFLPQGVTVTTSSNKYTLPVYEIGGPAGTTITLTGNWYSTPYTVQITVGSTPTLTNYVSQILLKAVAYEGINVSTTQSPYYSTAILSTPPSEISITGSSTITAQGKLTATSASATVNLLTNATLTYENIPLTQYSFNGIIVTPGYAAINGTTAMAYVIGALYNKTSDYVLSFAGSQEPMQVMNNNLTEVTTLAPFGLTLLAPSVPATETGTSPLQLEFFTVPSTSYIALVDFGLWGNLTSVTVSAYDTVNNKLSVNLGYFYGIVIPPSISTAPYNYQNFICPNNYVTVTIYDPDAVLDPYPSGSFTTSSLPLKYGNMNITGAVIFPGSSVYNPSGVFGYSNFNKGAAVTTFTYTAQSGPFSPVALTGNTNYLSQYADNNPTDNYYFIQTVNGMPVLMGGLSIVASPVSASLPSSTSSPGFMYLLPSAAQVPSPLPGMATPNYNLNIYITYKIDGATVGNNMINGLYVASQNTLIYVVPNGSFVGSNIKLTYTTTDYAVLHYFYSTGQYKVFKTVSVPNVTANLYFPSSTTPLYQLSVPLYLSEPYYGSPLPTYIGLGTNGTSLWNSPNYVLFGVSAVQQYLGFIKSISVTLSNGTTVVIPLTTSNMQTLFPQLVGQELQACNGTFQFGISITGLEKLLNLNVQQLNNSILSVTYHDYVTGETLTATTKLVALSTLSLVAKGAGVVEFLLTAYPYTGNITFAPPWFIAENVVKQPFMTYSDLQFAKTNPSAILSLSTVNITVVGLGGKASVYYNSTSGQTVITNIYGQTVATLSGNVLPTLTELAAGNGTFTGSLQFTIVPNNTVVQIPSSLTKTSFAVYTNGSLAIVLNGKAYSLGPAGLFLLPFVTYTGSAIGANATAIITVSDGVGTSTTQVPITAENFTPIRLAPFQVPAQVPLPNAPKLKYEYNGSIVITPQQQVLKIYVTSILPYPQEFQIQAFVYEASQFNVHTGSPTAAPVYFSYSAVRAYPALGIGTSVPNLLVYVQLQGISNLPAGKYVIVLSAVPFAGGPVLSEYPAQLIFTNVTLTQ
modifications: highly glycosylated
notes: S-layer protein SlaA of Sulfolobus acidocaldarius, locus saci2355, extracted from the S-layer of wild-type cells; Same preparation as m1 without the dye; it may also contain SlaB; also called unlabeled exogenous S-layer proteins; soluble S-layer proteins
On to B1, for which the binding result is reported as “binds”.
